Measurements from publication PMC10397247.
Like-named read-outs stand apart in the source and are kept apart here.

Columns and labels:
4H454-AA = target: T1, 4H454-AA; assay: two-hybrid library CCmax; settings: mean of both orientations;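 further: natural log of median RNA to DNA barcode read ratio; higher means stronger binding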
T1 chain: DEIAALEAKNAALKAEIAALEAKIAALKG

4H605-AA = target: T2, 4H605-AA; assay: two-hybrid library CCmax; settings: mean of both orientations;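 further: natural log of median RNA to DNA barcode read ratio; higher means stronger binding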
T2 chain: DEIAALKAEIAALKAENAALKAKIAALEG

4H2190-AA = target: T3, 4H2190-AA; assay: two-hybrid library CCmax; settings: mean of both orientations;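 further: natural log of median RNA to DNA barcode read ratio; higher means stronger binding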
T3 chain: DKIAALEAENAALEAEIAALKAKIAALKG

4H2949-AA = target: T4, 4H2949-AA; assay: two-hybrid library CCmax; settings: mean of both orientations;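 further: natural log of median RNA to DNA barcode read ratio; higher means stronger binding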
T4 chain: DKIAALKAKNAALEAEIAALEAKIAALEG

4H335-AA = target: T5, 4H335-AA; assay: two-hybrid library CCmax; settings: mean of both orientations
T5 chain: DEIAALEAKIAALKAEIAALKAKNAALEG

4H2393-AA = target: T6, 4H2393-AA; assay: two-hybrid library CCmax; settings: mean of both orientations
T6 chain: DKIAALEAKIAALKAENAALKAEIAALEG

4H2837-AA = target: T7, 4H2837-AA; assay: two-hybrid library CCmax; settings: mean of both orientations
T7 chain: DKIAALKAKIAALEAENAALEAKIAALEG

4H3627-AA = target: T8, 4H3627-AA; assay: two-hybrid library CCmax; settings: mean of both orientations
T8 chain: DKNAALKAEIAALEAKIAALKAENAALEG

4H881-AA = target: T9, 4H881-AA; assay: two-hybrid library CCmax; settings: mean of both orientations
T9 chain: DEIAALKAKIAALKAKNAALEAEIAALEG

4H3112-AA = target: T10, 4H3112-AA; assay: two-hybrid library CCmax; settings: mean of both orientations
T10 chain: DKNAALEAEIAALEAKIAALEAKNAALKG

4H780-AA = target: T11, 4H780-AA; assay: two-hybrid library CCmax; settings: mean of both orientations
T11 chain: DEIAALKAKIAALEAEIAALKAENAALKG

4H794-AA = target: T12, 4H794-AA; assay: two-hybrid library CCmax; settings: mean of both orientations
T12 chain: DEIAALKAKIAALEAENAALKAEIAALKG

4H2078-AA = target: T13, 4H2078-AA; assay: two-hybrid library CCmax
T13 chain: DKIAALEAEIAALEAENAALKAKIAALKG

4H2729-AA = target: T14, 4H2729-AA; assay: two-hybrid library CCmax; settings: mean of both orientations
T14 chain: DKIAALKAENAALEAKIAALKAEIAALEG

4H566-AA = target: T15, 4H566-AA; assay: two-hybrid library CCmax; settings: mean of both orientations
T15 chain: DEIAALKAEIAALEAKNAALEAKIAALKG

4H2354-AA = target: T16, 4H2354-AA; assay: two-hybrid library CCmax; settings: mean of both orientations
T16 chain: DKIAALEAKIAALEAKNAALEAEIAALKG

4H317-AA = target: T17, 4H317-AA; assay: two-hybrid library CCmax; settings: mean of both orientations
T17 chain: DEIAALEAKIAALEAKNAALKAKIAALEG

4H2754-AA = target: T18, 4H2754-AA; assay: two-hybrid library CCmax; settings: mean of both orientations
T18 chain: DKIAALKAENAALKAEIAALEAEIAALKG

4H2575-AA = target: T19, 4H2575-AA; assay: two-hybrid library CCmax; settings: mean of both orientations
T19 chain: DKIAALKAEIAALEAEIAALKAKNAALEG

4H2466-AA = target: T20, 4H2466-AA; assay: two-hybrid library CCmax; settings: mean of both orientations
T20 chain: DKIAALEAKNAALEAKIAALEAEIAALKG

4H48-AA = target: T21, 4H48-AA; assay: two-hybrid library CCmax; settings: mean of both orientations
T21 chain: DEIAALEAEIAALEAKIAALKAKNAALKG

4H1867-AA = target: T22, 4H1867-AA; assay: two-hybrid library CCmax
T22 chain: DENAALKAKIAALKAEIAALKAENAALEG

4H2617-AA = target: T23, 4H2617-AA; assay: two-hybrid library CCmax; settings: mean of both orientations
T23 chain: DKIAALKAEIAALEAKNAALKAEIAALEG

4H993-AA = target: T24, 4H993-AA; assay: two-hybrid library CCmax; settings: mean of both orientations
T24 chain: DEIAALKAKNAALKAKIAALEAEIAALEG

4H2277-AA = target: T25, 4H2277-AA; assay: two-hybrid library CCmax; settings: mean of both orientations
T25 chain: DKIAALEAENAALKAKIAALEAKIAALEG

4H3606-AA = target: T26, 4H3606-AA; assay: two-hybrid library CCmax; settings: mean of both orientations
T26 chain: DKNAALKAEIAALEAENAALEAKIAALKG

4H2165-AA = target: T27, 4H2165-AA; assay: two-hybrid library CCmax; settings: mean of both orientations
T27 chain: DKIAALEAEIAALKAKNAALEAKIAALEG

4H234-AA = target: T28, 4H234-AA; assay: two-hybrid library CCmax; settings: mean of both orientations
T28 chain: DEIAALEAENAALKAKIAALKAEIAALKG

4H2151-AA = target: T29, 4H2151-AA; assay: two-hybrid library CCmax; settings: mean of both orientations
T29 chain: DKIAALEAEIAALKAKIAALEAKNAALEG

4H3844-AA = target: T30, 4H3844-AA; assay: two-hybrid library CCmax; settings: mean of both orientations
T30 chain: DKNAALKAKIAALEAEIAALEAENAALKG

4H429-AA = target: T31, 4H429-AA; assay: two-hybrid library CCmax; settings: mean of both orientations
T31 chain: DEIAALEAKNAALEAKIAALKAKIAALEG

4H3921-AA = target: T32, 4H3921-AA; assay: two-hybrid library CCmax; settings: mean of both orientations
T32 chain: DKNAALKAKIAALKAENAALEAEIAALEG

4H906-AA = target: T33, 4H906-AA; assay: two-hybrid library CCmax; settings: mean of both orientations
T33 chain: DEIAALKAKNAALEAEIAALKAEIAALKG

4H678-AA = target: T34, 4H678-AA; assay: two-hybrid library CCmax; settings: mean of both orientations
T34 chain: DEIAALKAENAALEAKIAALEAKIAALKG

4H2883-AA = target: T35, 4H2883-AA; assay: two-hybrid library CCmax; settings: mean of both orientations
T35 chain: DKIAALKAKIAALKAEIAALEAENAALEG

4H2642-AA = target: T36, 4H2642-AA; assay: two-hybrid library CCmax
T36 chain: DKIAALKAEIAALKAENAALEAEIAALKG

4H342-AA = target: T37, 4H342-AA; assay: two-hybrid library CCmax; settings: mean of both orientations
T37 chain: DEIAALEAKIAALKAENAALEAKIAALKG

4H2944-AA = target: T38, 4H2944-AA; assay: two-hybrid library CCmax; settings: mean of both orientations
T38 chain: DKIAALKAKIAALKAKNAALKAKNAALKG

4H3427-AA = target: T39, 4H3427-AA; assay: two-hybrid library CCmax; settings: mean of both orientations
T39 chain: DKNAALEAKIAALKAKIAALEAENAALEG

4H3655-AA = target: T40, 4H3655-AA; assay: two-hybrid library CCmax
T40 chain: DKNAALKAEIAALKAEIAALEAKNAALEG

4H3343-AA = target: T41, 4H3343-AA; assay: two-hybrid library CCmax; settings: mean of both orientations
T41 chain: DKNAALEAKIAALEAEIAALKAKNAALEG

4H717-AA = target: T42, 4H717-AA; assay: two-hybrid library CCmax; settings: mean of both orientations
T42 chain: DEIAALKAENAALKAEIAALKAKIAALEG

4H2505-AA = target: T43, 4H2505-AA; assay: two-hybrid library CCmax; settings: mean of both orientations
T43 chain: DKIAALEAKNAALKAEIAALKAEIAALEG

4H249-AA = target: T44, 4H249-AA; assay: two-hybrid library CCmax
T44 chain: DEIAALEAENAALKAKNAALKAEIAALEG

O8-bA = target: T45, O8-bA; assay: two-hybrid library CCNG1
T45 chain: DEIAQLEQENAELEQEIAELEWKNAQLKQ

O9-bA = target: T46, O9-bA; assay: two-hybrid library CCNG1
T46 chain: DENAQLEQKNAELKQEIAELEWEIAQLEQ

O3-bA = target: T47, O3-bA; assay: two-hybrid library CCNG1
T47 chain: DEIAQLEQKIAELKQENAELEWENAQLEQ

O5-bA = target: T48, O5-bA; assay: two-hybrid library CCNG1
T48 chain: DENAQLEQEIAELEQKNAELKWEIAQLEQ

O6-bA = target: T49, O6-bA; assay: two-hybrid library CCNG1
T49 chain: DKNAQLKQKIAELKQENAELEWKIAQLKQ

O4-bA = target: T50, O4-bA; assay: two-hybrid library CCNG1
T50 chain: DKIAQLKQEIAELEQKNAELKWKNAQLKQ

O7-bA = target: T51, O7-bA; assay: two-hybrid library CCNG1
T51 chain: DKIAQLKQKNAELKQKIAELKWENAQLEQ

P8bHq = target: T52, P8bHq; assay: two-hybrid library CCNG1
T52 chain: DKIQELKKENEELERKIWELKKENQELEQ

P9bHq = target: T53, P9bHq; assay: two-hybrid library CCNG1
T53 chain: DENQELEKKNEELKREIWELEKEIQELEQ

## DENAALKAKIAALKAEIAALKAENAALEG [4H1867-AA]
4H454-AA
  interaction score: -0.172
4H605-AA
  interaction score: -1.5
4H2190-AA
  interaction score: -0.428
4H2949-AA
  interaction score: -1.06
4H335-AA
  interaction score: -0.988
4H2393-AA
  interaction score: -1.58
4H2837-AA
  interaction score: -1.19
4H3627-AA
  interaction score: 0.353
4H881-AA
  interaction score: -1.8
4H3112-AA
  interaction score: 0.579
4H780-AA
  interaction score: -0.525
4H794-AA
  interaction score: -1.4
4H2078-AA; mean of both orientations
  interaction score: -0.776
4H2729-AA
  interaction score: -1.46
4H566-AA
  interaction score: -1.59
4H2354-AA
  interaction score: -1.35
4H317-AA
  interaction score: -1.01
4H2754-AA
  interaction score: 1.11
4H2575-AA
  interaction score: 1.63
4H2466-AA
  interaction score: -1.6
4H48-AA
  interaction score: 1.5
4H1867-AA
  interaction score: 0.169
4H2617-AA
  interaction score: -1.4
4H993-AA
  interaction score: -1.05
4H2277-AA
  interaction score: -1.23
4H3606-AA
  interaction score: -1.11
4H2165-AA
  interaction score: -1.77
4H234-AA
  interaction score: -0.943
4H2151-AA
  interaction score: -1.27
4H3844-AA
  interaction score: 1.01
4H429-AA
  interaction score: -1.51
4H3921-AA
  interaction score: -1.88
4H906-AA
  interaction score: -1.71
4H678-AA
  interaction score: -1.03
4H2883-AA
  interaction score: -0.898
4H2642-AA
  interaction score: -2.13
4H342-AA
  interaction score: -0.881
4H2944-AA
  interaction score: -0.512
4H3427-AA
  interaction score: -1.26
4H3655-AA; mean of both orientations
  interaction score: -0.0304
4H3343-AA
  interaction score: 0.12
4H717-AA
  interaction score: -1.28
4H2505-AA
  interaction score: -1.62

## DKIAALEAEIAALEAENAALKAKIAALKG [4H2078-AA]
4H454-AA
  interaction score: -0.599
4H605-AA
  interaction score: 1.68
4H2190-AA
  interaction score: 1.33
4H2949-AA
  interaction score: -1.02
4H335-AA
  interaction score: 0.35
4H2393-AA
  interaction score: 2.47
4H2837-AA
  interaction score: 1.93
4H3627-AA
  interaction score: -0.14
4H249-AA
  interaction score: 0.347
4H881-AA
  interaction score: 2.31
4H3112-AA
  interaction score: -0.952
4H780-AA
  interaction score: -1.14
4H794-AA
  interaction score: 1.84
4H2078-AA
  interaction score: 1.98
4H2729-AA
  interaction score: 0.661
4H566-AA
  interaction score: -1.05
4H2354-AA
  interaction score: -0.00435
4H317-AA
  interaction score: 1.93
4H2754-AA
  interaction score: 0.637
4H2575-AA
  interaction score: -0.721
4H2466-AA
  interaction score: -0.982
4H48-AA
  interaction score: 0.504
4H2617-AA
  interaction score: 2.35
4H993-AA
  interaction score: -1.03
4H2277-AA
  interaction score: -1.09
4H3606-AA
  interaction score: -0.297
4H2165-AA
  interaction score: 0.246
4H234-AA
  interaction score: -0.505
4H2151-AA
  interaction score: -1.39
4H3844-AA
  interaction score: -0.801
4H429-AA
  interaction score: 1.79
4H3921-AA
  interaction score: 2.02
4H906-AA
  interaction score: -0.59
4H678-AA
  interaction score: -0.466
4H2883-AA
  interaction score: 0.158
4H2642-AA; mean of both orientations
  interaction score: 2.25
4H342-AA
  interaction score: 2.14
4H2944-AA
  interaction score: 0.298
4H3427-AA
  interaction score: -0.664
4H3655-AA
  interaction score: -1.22
4H3343-AA
  interaction score: -1.08
4H717-AA
  interaction score: -1.62
4H2505-AA
  interaction score: 1.62

## DEIAQLEQKIAELKQENAELEWENAQLEQ [O3-bA]
O8-bA
  interaction score: -1.12
O9-bA
  interaction score: -0.712
O3-bA
  interaction score: -0.685
O5-bA
  interaction score: -0.75
O6-bA
  interaction score: -0.618
O4-bA
  interaction score: 2.34
O7-bA
  interaction score: -0.831

## DKIQELKKENEELERKIWELKKENQELEQ [P8bHq]
P8bHq
  interaction score: -0.229
P9bHq
  interaction score: -1.36
